From paper PMC9482650, “Quantitative fragmentomics allow affinity mapping of interactomes” (Nature Communications, 2022)

T1: MPP6, Q9NZW5
T1 sequence (Q9NZW5 125-219, limits assumed, looked up): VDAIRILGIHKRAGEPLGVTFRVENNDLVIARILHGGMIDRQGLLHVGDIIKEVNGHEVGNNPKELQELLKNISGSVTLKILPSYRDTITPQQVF

T2: NHERF3_3, Q5T2W1
T2 sequence (Q5T2W1 238-333, limits assumed, looked up): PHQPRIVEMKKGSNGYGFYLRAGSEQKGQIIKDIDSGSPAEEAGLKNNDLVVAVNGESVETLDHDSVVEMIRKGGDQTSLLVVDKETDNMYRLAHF

T3: SNTG2, Q9NY99
T3 sequence (Q9NY99 68-166, limits assumed, looked up): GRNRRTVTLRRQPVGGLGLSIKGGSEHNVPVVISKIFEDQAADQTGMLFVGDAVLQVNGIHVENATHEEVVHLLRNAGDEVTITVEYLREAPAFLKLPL

T4: TIAM2, Q8IVF5
T4 sequence (Q8IVF5 885-986, limits assumed, looked up): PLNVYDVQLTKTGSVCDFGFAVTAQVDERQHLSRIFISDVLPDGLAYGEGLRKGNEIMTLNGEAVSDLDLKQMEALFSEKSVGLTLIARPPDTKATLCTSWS

T5: LRRC7, Q96NW7
T5 sequence (Q96NW7 1440-1537, limits assumed, looked up): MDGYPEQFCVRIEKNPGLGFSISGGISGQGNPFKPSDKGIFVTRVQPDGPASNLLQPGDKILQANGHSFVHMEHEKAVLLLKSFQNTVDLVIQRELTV

T6: NHERF3_1, Q5T2W1
T6 sequence (Q5T2W1 4-100, limits assumed, looked up): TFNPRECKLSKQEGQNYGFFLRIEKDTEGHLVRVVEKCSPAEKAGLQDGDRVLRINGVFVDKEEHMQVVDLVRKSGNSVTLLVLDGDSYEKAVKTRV

T7: PARD3B_1, Q8TEW8
T7 sequence (Q8TEW8 196-299, limits assumed, looked up): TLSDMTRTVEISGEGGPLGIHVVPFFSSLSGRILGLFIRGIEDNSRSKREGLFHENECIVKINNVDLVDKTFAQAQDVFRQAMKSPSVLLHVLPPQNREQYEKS

T8: SNTG1, Q9NSN8
T8 sequence (Q9NSN8 52-150, limits assumed, looked up): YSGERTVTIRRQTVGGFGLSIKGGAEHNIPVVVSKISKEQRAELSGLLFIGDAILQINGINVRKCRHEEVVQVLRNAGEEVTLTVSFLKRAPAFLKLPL


The binders below were run against SCRIB_3, Q14160 (assay: holdup assay). Settings: plain residues with an end cap or a label only (N-terminal biotin on a linker: ado-ado).
Sequence of SCRIB_3, Q14160 (Q14160 999-1103): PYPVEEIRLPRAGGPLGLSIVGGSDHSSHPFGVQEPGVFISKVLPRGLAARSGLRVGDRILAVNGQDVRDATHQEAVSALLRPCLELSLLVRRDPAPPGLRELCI
Set-up: key: below the threshold = too weak to quantify, mostly under pKd 3.1 to 4

pKd	Binder
below the threshold	LSEFKAMDSI [CTNNA1, P35221]

These binders were tested against IL16_4, Q14005 (assay: holdup assay). Settings: plain residues with an end cap or a label only (N-terminal biotin on a linker: ado-ado).
Sequence of IL16_4, Q14005 (Q14005 1229-1329): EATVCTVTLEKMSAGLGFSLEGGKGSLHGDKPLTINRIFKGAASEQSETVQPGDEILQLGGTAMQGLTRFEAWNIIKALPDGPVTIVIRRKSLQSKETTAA
Set-up: key: below the threshold = too weak to quantify, mostly under pKd 3.1 to 4

pKd	Binder
below the threshold	LSEFKAMDSI [CTNNA1, P35221]

The binders below were run against T1, MPP6, Q9NZW5 (assay: holdup assay). Settings: plain residues with an end cap or a label only (N-terminal biotin on a linker: ado-ado).
Set-up: key: below the threshold = too weak to quantify, mostly under pKd 3.1 to 4

pKd	Binder
below the threshold	LSEFKAMDSI [CTNNA1, P35221]

These binders were tested against DLG4_2, P78352 (assay: holdup assay). Settings: plain residues with an end cap or a label only (N-terminal biotin on a linker: ado-ado).
Sequence of DLG4_2, P78352 (P78352 155-259): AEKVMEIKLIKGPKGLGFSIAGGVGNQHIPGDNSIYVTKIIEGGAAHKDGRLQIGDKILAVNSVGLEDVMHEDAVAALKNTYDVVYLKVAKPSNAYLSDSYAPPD
Set-up: key: below the threshold = too weak to quantify, mostly under pKd 3.1 to 4

pKd	Binder
below the threshold	LSEFKAMDSI [CTNNA1, P35221]

These binders were tested against LDB3, O75112 (assay: holdup assay). Settings: plain residues with an end cap or a label only (N-terminal biotin on a linker: ado-ado).
Sequence of LDB3, O75112 (O75112 1-94): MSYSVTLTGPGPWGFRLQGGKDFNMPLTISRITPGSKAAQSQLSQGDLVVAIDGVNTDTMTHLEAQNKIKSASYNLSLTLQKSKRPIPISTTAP
Set-up: key: below the threshold = too weak to quantify, mostly under pKd 3.1 to 4

pKd	Binder
below the threshold	LSEFKAMDSI [CTNNA1, P35221]

These binders were tested against T2, NHERF3_3, Q5T2W1 (assay: holdup assay). Settings: plain residues with an end cap or a label only (N-terminal biotin on a linker: ado-ado).
Set-up: key: below the threshold = too weak to quantify, mostly under pKd 3.1 to 4

pKd	Binder
below the threshold	LSEFKAMDSI [CTNNA1, P35221]

What follows are binders tested against TJP1_3, Q07157 (assay: holdup assay). Settings: plain residues with an end cap or a label only (N-terminal biotin on a linker: ado-ado).
Sequence of TJP1_3, Q07157 (Q07157 416-512): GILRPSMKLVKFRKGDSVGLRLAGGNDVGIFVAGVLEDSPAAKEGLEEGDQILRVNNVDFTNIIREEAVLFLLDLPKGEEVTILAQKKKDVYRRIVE
Set-up: key: below the threshold = too weak to quantify, mostly under pKd 3.1 to 4

pKd	Binder
below the threshold	LSEFKAMDSI [CTNNA1, P35221]

What follows are binders tested against T3, SNTG2, Q9NY99 (assay: holdup assay). Settings: plain residues with an end cap or a label only (N-terminal biotin on a linker: ado-ado).
Set-up: key: below the threshold = too weak to quantify, mostly under pKd 3.1 to 4

pKd	Binder
below the threshold	LSEFKAMDSI [CTNNA1, P35221]

The binders below were run against T4, TIAM2, Q8IVF5 (assay: holdup assay). Settings: plain residues with an end cap or a label only (N-terminal biotin on a linker: ado-ado).
Set-up: key: below the threshold = too weak to quantify, mostly under pKd 3.1 to 4

pKd	Binder
3.48	LSEFKAMDSI [CTNNA1, P35221]

What follows are binders tested against Inadl_1, Q8NI35 (assay: holdup assay). Settings: plain residues with an end cap or a label only (N-terminal biotin on a linker: ado-ado).
Sequence of Inadl_1, Q8NI35 (Q8NI35 113-229): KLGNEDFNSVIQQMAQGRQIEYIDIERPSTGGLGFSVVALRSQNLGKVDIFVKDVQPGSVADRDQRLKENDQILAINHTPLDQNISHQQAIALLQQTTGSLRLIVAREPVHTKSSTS
Set-up: key: below the threshold = too weak to quantify, mostly under pKd 3.1 to 4

pKd	Binder
below the threshold	LSEFKAMDSI [CTNNA1, P35221]

The binders below were run against T5, LRRC7, Q96NW7 (assay: holdup assay). Settings: plain residues with an end cap or a label only (N-terminal biotin on a linker: ado-ado).
Set-up: key: below the threshold = too weak to quantify, mostly under pKd 3.1 to 4

pKd	Binder
below the threshold	LSEFKAMDSI [CTNNA1, P35221]

The binders below were run against SCRIB_1, Q14160 (assay: holdup assay). Settings: plain residues with an end cap or a label only (N-terminal biotin on a linker: ado-ado).
Sequence of SCRIB_1, Q14160 (Q14160 718-814): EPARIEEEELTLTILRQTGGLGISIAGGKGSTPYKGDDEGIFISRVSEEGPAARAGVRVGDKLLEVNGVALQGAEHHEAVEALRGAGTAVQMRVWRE
Set-up: key: below the threshold = too weak to quantify, mostly under pKd 3.1 to 4

pKd	Binder
below the threshold	LSEFKAMDSI [CTNNA1, P35221]

What follows are binders tested against GRASP, Q7Z6J2 (assay: holdup assay). Settings: plain residues with an end cap or a label only (N-terminal biotin on a linker: ado-ado).
Sequence of GRASP, Q7Z6J2 (Q7Z6J2 96-193): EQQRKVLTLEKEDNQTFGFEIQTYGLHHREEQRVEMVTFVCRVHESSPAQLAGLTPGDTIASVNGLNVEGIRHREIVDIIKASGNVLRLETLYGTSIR
Set-up: key: below the threshold = too weak to quantify, mostly under pKd 3.1 to 4

pKd	Binder
below the threshold	LSEFKAMDSI [CTNNA1, P35221]

These binders were tested against DLG1_2, Q12959 (assay: holdup assay). Settings: plain residues with an end cap or a label only (N-terminal biotin on a linker: ado-ado).
Sequence of DLG1_2, Q12959 (Q12959 314-412): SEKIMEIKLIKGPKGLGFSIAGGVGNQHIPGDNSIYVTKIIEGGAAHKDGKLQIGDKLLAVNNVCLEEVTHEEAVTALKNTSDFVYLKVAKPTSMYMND
Set-up: key: below the threshold = too weak to quantify, mostly under pKd 3.1 to 4

pKd	Binder
below the threshold	LSEFKAMDSI [CTNNA1, P35221]

Each binder was assayed against T6, NHERF3_1, Q5T2W1 (assay: holdup assay). Settings: plain residues with an end cap or a label only (N-terminal biotin on a linker: ado-ado).
Set-up: key: below the threshold = too weak to quantify, mostly under pKd 3.1 to 4

pKd	Binder
below the threshold	LSEFKAMDSI [CTNNA1, P35221]

The binders below were run against IL16_1, Q14005 (assay: holdup assay). Settings: plain residues with an end cap or a label only (N-terminal biotin on a linker: ado-ado).
Sequence of IL16_1, Q14005 (Q14005 210-306): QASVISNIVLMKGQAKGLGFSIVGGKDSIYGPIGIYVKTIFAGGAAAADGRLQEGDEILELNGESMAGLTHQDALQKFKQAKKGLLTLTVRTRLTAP
Set-up: key: below the threshold = too weak to quantify, mostly under pKd 3.1 to 4

pKd	Binder
below the threshold	LSEFKAMDSI [CTNNA1, P35221]

Each binder was assayed against PARD3_3, Q8TEW0 (assay: holdup assay). Settings: plain residues with an end cap or a label only (N-terminal biotin on a linker: ado-ado).
Sequence of PARD3_3, Q8TEW0 (Q8TEW0 582-685): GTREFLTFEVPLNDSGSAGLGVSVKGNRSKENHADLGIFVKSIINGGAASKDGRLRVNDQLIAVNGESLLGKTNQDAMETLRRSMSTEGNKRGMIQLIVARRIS
Set-up: key: below the threshold = too weak to quantify, mostly under pKd 3.1 to 4

pKd	Binder
below the threshold	LSEFKAMDSI [CTNNA1, P35221]

The binders below were run against NHERF4_4, Q86UT5 (assay: holdup assay). Settings: plain residues with an end cap or a label only (N-terminal biotin on a linker: ado-ado).
Sequence of NHERF4_4, Q86UT5 (Q86UT5 464-550): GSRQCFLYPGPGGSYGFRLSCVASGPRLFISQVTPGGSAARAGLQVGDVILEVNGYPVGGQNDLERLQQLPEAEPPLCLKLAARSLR
Set-up: key: below the threshold = too weak to quantify, mostly under pKd 3.1 to 4

pKd	Binder
below the threshold	LSEFKAMDSI [CTNNA1, P35221]

These binders were tested against T7, PARD3B_1, Q8TEW8 (assay: holdup assay). Settings: plain residues with an end cap or a label only (N-terminal biotin on a linker: ado-ado).
Set-up: key: below the threshold = too weak to quantify, mostly under pKd 3.1 to 4

pKd	Binder
below the threshold	LSEFKAMDSI [CTNNA1, P35221]

The binders below were run against Inadl_3, Q8NI35 (assay: holdup assay). Settings: plain residues with an end cap or a label only (N-terminal biotin on a linker: ado-ado).
Sequence of Inadl_3, Q8NI35 (Q8NI35 359-469): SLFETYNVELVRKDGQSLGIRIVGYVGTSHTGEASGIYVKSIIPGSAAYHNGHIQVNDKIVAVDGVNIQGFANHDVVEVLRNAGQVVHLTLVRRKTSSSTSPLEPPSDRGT
Set-up: key: below the threshold = too weak to quantify, mostly under pKd 3.1 to 4

pKd	Binder
below the threshold	LSEFKAMDSI [CTNNA1, P35221]

What follows are binders tested against DLG4_3, P78352 (assay: holdup assay). Settings: plain residues with an end cap or a label only (N-terminal biotin on a linker: ado-ado).
Sequence of DLG4_3, P78352 (P78352 306-403): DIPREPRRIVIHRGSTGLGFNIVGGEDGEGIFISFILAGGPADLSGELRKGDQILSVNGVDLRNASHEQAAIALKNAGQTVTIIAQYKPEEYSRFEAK
Set-up: key: below the threshold = too weak to quantify, mostly under pKd 3.1 to 4

pKd	Binder
below the threshold	LSEFKAMDSI [CTNNA1, P35221]

The binders below were run against DLG1_3, Q12959 (assay: holdup assay). Settings: plain residues with an end cap or a label only (N-terminal biotin on a linker: ado-ado).
Sequence of DLG1_3, Q12959 (Q12959 457-571): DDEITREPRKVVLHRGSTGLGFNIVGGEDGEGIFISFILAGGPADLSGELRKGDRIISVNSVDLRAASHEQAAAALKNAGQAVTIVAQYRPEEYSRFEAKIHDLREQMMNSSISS
Set-up: key: below the threshold = too weak to quantify, mostly under pKd 3.1 to 4

pKd	Binder
below the threshold	LSEFKAMDSI [CTNNA1, P35221]

These binders were tested against ARHGEF12, Q9NZN5-2 (assay: holdup assay). Settings: plain residues with an end cap or a label only (N-terminal biotin on a linker: ado-ado).
Sequence of ARHGEF12, Q9NZN5-2 (Q9NZN5 other isoform, or with tags, fused parts or gaps): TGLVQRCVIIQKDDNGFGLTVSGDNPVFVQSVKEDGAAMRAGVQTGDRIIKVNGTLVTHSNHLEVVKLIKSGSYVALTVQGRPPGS
Set-up: key: below the threshold = too weak to quantify, mostly under pKd 3.1 to 4

pKd	Binder
below the threshold	LSEFKAMDSI [CTNNA1, P35221]

These binders were tested against MAST2, Q6P0Q8 (assay: holdup assay). Settings: plain residues with an end cap or a label only (N-terminal biotin on a linker: ado-ado).
Sequence of MAST2, Q6P0Q8 (Q6P0Q8 1099-1202): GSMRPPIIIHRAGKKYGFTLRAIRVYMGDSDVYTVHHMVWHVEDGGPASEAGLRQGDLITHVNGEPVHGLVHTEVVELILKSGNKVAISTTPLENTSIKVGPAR
Set-up: key: below the threshold = too weak to quantify, mostly under pKd 3.1 to 4

pKd	Binder
below the threshold	LSEFKAMDSI [CTNNA1, P35221]

What follows are binders tested against LIMK2, P53671 (assay: holdup assay). Settings: plain residues with an end cap or a label only (N-terminal biotin on a linker: ado-ado).
Sequence of LIMK2, P53671 (P53671 143-248): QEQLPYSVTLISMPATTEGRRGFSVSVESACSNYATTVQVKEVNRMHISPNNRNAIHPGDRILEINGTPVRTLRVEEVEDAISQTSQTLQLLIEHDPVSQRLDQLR
Set-up: key: below the threshold = too weak to quantify, mostly under pKd 3.1 to 4

pKd	Binder
below the threshold	LSEFKAMDSI [CTNNA1, P35221]

Each binder was assayed against PTPN3, P26045 (assay: holdup assay). Settings: plain residues with an end cap or a label only (N-terminal biotin on a linker: ado-ado).
Sequence of PTPN3, P26045 (P26045 505-587): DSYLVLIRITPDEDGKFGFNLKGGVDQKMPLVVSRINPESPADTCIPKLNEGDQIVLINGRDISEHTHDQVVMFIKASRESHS
Set-up: key: below the threshold = too weak to quantify, mostly under pKd 3.1 to 4

pKd	Binder
3.97	LSEFKAMDSI [CTNNA1, P35221]

What follows are binders tested against GRIP2_6, Q9C0E4 (assay: holdup assay). Settings: plain residues with an end cap or a label only (N-terminal biotin on a linker: ado-ado).
Sequence of GRIP2_6, Q9C0E4 (Q9C0E4 648-740): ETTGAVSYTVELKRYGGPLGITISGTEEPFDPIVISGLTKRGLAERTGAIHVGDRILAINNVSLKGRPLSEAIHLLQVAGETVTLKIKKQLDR
Set-up: key: below the threshold = too weak to quantify, mostly under pKd 3.1 to 4

pKd	Binder
below the threshold	LSEFKAMDSI [CTNNA1, P35221]

What follows are binders tested against LAP2, Q96RT1 (assay: holdup assay). Settings: plain residues with an end cap or a label only (N-terminal biotin on a linker: ado-ado).
Sequence of LAP2, Q96RT1 (Q96RT1 other isoform, or with tags, fused parts or gaps): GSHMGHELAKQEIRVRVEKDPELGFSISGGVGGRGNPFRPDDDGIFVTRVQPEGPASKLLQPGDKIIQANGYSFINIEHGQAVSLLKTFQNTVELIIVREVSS
Set-up: key: below the threshold = too weak to quantify, mostly under pKd 3.1 to 4

pKd	Binder
below the threshold	LSEFKAMDSI [CTNNA1, P35221]

These binders were tested against T8, SNTG1, Q9NSN8 (assay: holdup assay). Settings: plain residues with an end cap or a label only (N-terminal biotin on a linker: ado-ado).
Set-up: key: below the threshold = too weak to quantify, mostly under pKd 3.1 to 4

pKd	Binder
below the threshold	LSEFKAMDSI [CTNNA1, P35221]

What follows are binders tested against PICK1, Q9NRD5 (assay: holdup assay). Settings: plain residues with an end cap or a label only (N-terminal biotin on a linker: ado-ado).
Sequence of PICK1, Q9NRD5 (Q9NRD5 17-115): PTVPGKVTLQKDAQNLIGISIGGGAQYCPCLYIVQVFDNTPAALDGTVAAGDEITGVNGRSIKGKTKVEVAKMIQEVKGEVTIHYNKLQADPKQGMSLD
Set-up: key: below the threshold = too weak to quantify, mostly under pKd 3.1 to 4

pKd	Binder
4.08	LSEFKAMDSI [CTNNA1, P35221]
